Source: the supplement of paper PMC5998384

How the values were obtained:
HeLa Kyoto [1] = test: solubility in G1/S (NP-40 vs SDS abundance) (log2 ratio); higher = more soluble; conditions: cell cycle stage: G1/S
HeLa Kyoto [2] = test: melting temperature (median over replicates), in situ; higher = more thermally stable
HeLa Kyoto [3] = test: solubility change mitosis vs G1/S (difference of NP-40 vs SDS log2 ratios) (log2 ratio difference); higher = more soluble in mitosis
HeLa Kyoto [4] = test: thermal stability score vs G1/S (z-score of summed log2 fold changes over temperatures); higher = more thermally stable than in G1/S
[5] = cell cycle stage: early G1 (4.5 h after nocodazole release)
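Wherever melting temperature (median over replicates), in situ is given: HeLa Kyoto cells synchronized by double thymidine or nocodazole block, proteins quantified by TMT10plex mass spectrometry, three independent biological replicates.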
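Wherever solubility change mitosis vs G1/S (difference of NP-40 vs SDS log2 ratios) is given: synchronized HeLa Kyoto cells (double thymidine block for G1/S, nocodazole release for mitosis), protein amounts in NP-40 versus SDS lysates quantified by mass spectrometry, three biological replicates.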
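Wherever solubility in G1/S (NP-40 vs SDS abundance) is given: HeLa Kyoto cells arrested at G1/S by double thymidine block, proteins quantified by TMT10plex mass spectrometry in mild NP-40 versus SDS extracts, three biological replicates.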
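Wherever thermal stability score vs G1/S (z-score of summed log2 fold changes over temperatures) is given: synchronized HeLa Kyoto cells, proteins quantified by TMT10plex mass spectrometry, three biological replicates, mitosis taken 0.5 h after nocodazole release, G1/S directly after double thymidine block.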

| Sequence | solubility in G1/S (log2) (HeLa Kyoto [1]) | melting temperature (HeLa Kyoto [2]; cell cycle stage: G1/S) [°C] | melting temperature (HeLa Kyoto [2]; cell cycle stage: mitosis) [°C] | solubility change mitosis (log2) (HeLa Kyoto [3]) | thermal stability score (HeLa Kyoto [4]; [5]) | thermal stability score (HeLa Kyoto [4]; cell cycle stage: mitosis) |
| --- | --- | --- | --- | --- | --- | --- |
| MAATKRKRRGGFAVQAKKPKRNEIDAEPPAKRHATAEEVEEEERDRIPGPVCKGKWKNKERILIFSSRGINFRTRHLMQDLRMLMPHSKADTKMDRKDKLFVINEVCEMKNCNKCIYFEAKKKQDLYMWLSNSPHGPSAKFLVQNIHTLAELKMTGNCLKGSRPLLSFDPAFDELPHYALLKELLIQIFSTPRYHPKSQPFVDHVFTFTILDNRIWFRNFQIIEEDAALVEIGPRFVLNLIKIFQGSFGGPTLYENPHYQSPNMHRRVIRSITAAKYREKQQVKDVQKLRKKEPKTLLPHDPTADVFVTPAEEKPIEIQWVKPEPKVDLKARKKRIYKRQRKMKQRMDSGKTK [BRIX1] | -2.07 | 53.8 | 52.9 | 1.19 | 0.649 | -2.33 |
| MAATLKSLKLVRYRAFCSPSAFGAVRSVSYWNVSSTQHGGQDPPEHISLCHSAKKVKNICSTFSSRRILTTSSAHPGLEFSKTSSSKASTLQLGSPRATGVDEEDVEVFDSFENMRVFLQLRPEYRVHSYNASETSQLLSVSEGELILHKVRVNQNNLQAQVIVDYLCKLSSLPAEQHPVLLGSTSFALLCQLSVKKIQLFDTQDLINVLKAFVILGIPHSHSMLDVYETKCCHQVWEMNMDQLLLVADLWRYLGRKVPRFLNIFSSYLNLHWKDLSLSQLVHLIYVIGENRQVSQDLMQKLESLILKYIDLINLEEVGTICLGFFKSSTNLSEFVMRKIGDLACANIQHLSSRSLVNIVKMFRFTHVDHINFMKQIGEIAPQRIPSLGVQGVMHLTLYCSALRFLNEGVMNAVAASLPPRVAHCRSKDVAKILWSFGTLNYKPPNAEEFYSSLISEIHRKMPEFNQYPEHLPTCLLGLAFLEYFPVELIDFALSPGFVRLAQERTKFDLLKELYTLDGTVGIECPDYRGNRLSTHLQQEGSELLWYLAEKDMNSKPEFLETVFLLETMLGGPQYVKHHMILPHTRSSDLEVQLDVNLKPLPFNREATPAENVAKLRLEHVGVSLTDDLMNKLLKGKARGHFQGKTESEPGQQPMELENKAAVPLGGFLCNVADKSGAMEMAGLCPAACMQTPRMKLAVQFTNRNQYCYGSRDLLGLHNMKRRQLARLGYRVVELSYWEWLPLLKRTRLEKLAFLHEKVFTSAL [FASTKD5] | -0.184 | 49.5 | 49.8 | -0.0689 | 0.139 | 1.05 |
| MAAVDLEKLRASGAGKAIGVLTSGGDAQGMNAAVRAVTRMGIYVGAKVFLIYEGYEGLVEGGENIKQANWLSVSNIIQLGGTIIGSARCKAFTTREGRRAAAYNLVQHGITNLCVIGGDGSLTGANIFRSEWGSLLEELVAEGKISETTARTYSHLNIAGLVGSIDNDFCGTDMTIGTDSALHRIMEVIDAITTTAQSHQRTFVLEVMGRHCGYLALVSALASGADWLFIPEAPPEDGWENFMCERLGETRSRGSRLNIIIIAEGAIDRNGKPISSSYVKDLVVQRLGFDTRVTVLGHVQRGGTPSAFDRILSSKMGMEAVMALLEATPDTPACVVTLSGNQSVRLPLMECVQMTKEVQKAMDDKRFDEATQLRGGSFENNWNIYKLLAHQKPPKEKSNFSLAILNVGAPAAGMNAAVRSAVRTGISHGHTVYVVHDGFEGLAKGQVQEVGWHDVAGWLGRGGSMLGTKRTLPKGQLESIVENIRIYGIHALLVVGGFEAYEGVLQLVEARGRYEELCIVMCVIPATISNNVPGTDFSLGSDTAVNAAMESCDRIKQSASGTKRRVFIVETMGGYCGYLATVTGIAVGADAAYVFEDPFNIHDLKVNVEHMTEKMKTDIQRGLVLRNEKCHDYYTTEFLYNLYSSEGKGVFDCRTNVLGHLQQGGAPTPFDRNYGTKLGVKAMLWLSEKLREVYRKGRVFANAPDSACVIGLKKKAVAFSPVTELKKDTDFEHRMPREQWWLSLRLMLKMLAQYRISMAAYVSGELEHVTRRTLSMDKGF [PFKL] | -0.0607 | 58.6 | 58.1 | -0.179 | -1.97 | -2.04 |
| MAAVLKPVLLGLRDAPVHGSPTGPGAWTASKLGGIPDALPTVAAPRPVCQRCGQPLALVVQVYCPLEGSPFHRLLHVFACACPGCSTGGARSWKVFRSQCLQVPEREAQDAQKQGNSLAAEDWCEGADDWGSDTEEGPSPQFTLDFGNDASSAKDVDWTARLQDLRLQDAVLGAAHPVPPGLPLFLPYYICVADEDDYRDFVNLDHAHSLLRDYQQREGIAMDQLLSQSLPNDGDEKYEKTIIKSGDQTFYKFMKRIAACQEQILRYSWSGEPLFLTCPTSEVTELPACSQCGGQRIFEFQLMPALVSMLKSANLGLSVEFGTILVYTCEKSCWPPNHQTPMEEFCIIQEDPDELLFK [PDCD2L] | 0.287 | 48.9 | 49.8 | 0.0741 | 0.0844 | 0.849 |
| MAAVQVVGSWPSVQPREAPREAIPERGNGFRLLSARLCALRPDDSSSARTEIHLLFDQLISENYSEGSGVAPEDVSALLVQACRLVPLNQNHLVSKVSQLIHHLLNRLQVIVDEQHLDFLLAYTISAIHQCSSWTHREILQALAALVYCNGSKCQKYLPELLGNTGLLMKLSDLAQSDPEVRRAAVHCMANLCLSVPGQPYLEEPYQNVCFQAFLTILQSPKSSDMDDITFCMLLQNALKGIQSLLNGGRMKLTQTDELGALLAVLKKFMFHGLPGLNIEMPTVLYPTPLPQYDGRTPIKPQQSESSASRPTLNKKKKSKVKPKKIQQGEEEEKESSGEIEAAPVTGTGRVNLHEGNTWCPSSLGVQSLPLDGSGAAEKDGVSSSFSSSSWKRVSSSESDFSDAEGGMQSKMRSYQAKVRQGALVCFLSTIKSIEKKVLYGYWSAFIPDTPELGSPQSVSLMTLTLKDPSPKTRACALQVLSAILEGSKQFLSVAEDTSDHRRAFTPFSVMIACSIRELHRCLLLALVAESSSQTVTQIIKCLANLVSNAPYDRLKLSLLTKVWNQIKPYIRHKDVNVRVSSLTLLGAIVSTHAPLPEVQLLLQQPCSSGLGNSNSATPHLSPPDWWKKAPAGPSLEETSVSSPKGSSEPCWLIRLCISIVVLPKEDSCSGSDAGSAAGSTYEPSPMRLEALQVLTLLARGYFSMTQAYLMELGEVICKCMGEADPSIQLHGAKLLEELGTGLIQQYKPDSTAAPDQRAPVFLVVMFWTMMLNGPLPRALQNSEHPTLQASACDALSSILPEAFSNLPNDRQMLCITVLLGLNDSKNRLVKAATSRALGVYVLFPCLRQDVIFVADAANAILMSLEDKSLNVRAKAAWSLGNLTDTLIVNMETPDPSFQEEFSGLLLLKMLRSAIEASKDKDKVKSNAVRALGNLLHFLQPSHIEKPTFAEIIEESIQALISTVLTEAAMKVRWNACYAMGNVFKNPALPLGTAPWTSQAYNALTSVVTSCKNFKVRIRSAAALSVPGKREQYGSVDQYARIWNALVTALQKSEDTIDFLEFKYCVSLRTQICQALIHLLSLASASDLPCMKETLELSGNMVQSYILQFLKSGAEGDDTGAPHSPQERDQMVRMALKHMGSIQAPTGDTARRAIMGFLEEILAVCFDSSGSQGALPGLTNQ [HEATR6] | 0.0502 | 50.5 | 50.1 | -0.216 | -0.697 | 0.141 |
